Assay results published in the RNAGym collection of RNA variant scans (doi:10.1073/pnas.2313332121).

B1: TPR t1 (parent)
chain: GACCAAUCUGCCCUCAGAGCUCGAGAACAUCUUCGGAUGCAGAGGAGGCAGGCUUCGGUGGCGCGAUAGCGCCAACGUCCUCAACCUCCAAUGCAUCCCACCACAUGAUGAUGCCUGAAGAGCCUUGGUUUUUUG

Variants of: B1
Assay: polymerase ribozyme fitness, log enrichment relative to wild type (log ratio); higher = more active; in vitro selection for triplet polymerase activity
In short: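 Each subunit of a heterodimeric triplet polymerase ribozyme was mutagenized into a library by PCR, transcribed, and subjected to one round of in vitro selection, run in triplicate. Libraries were annealed with a biotinylated primer, the partner subunit and triplets, incubated frozen at −7 °C, and extended constructs were gel-excised, captured on streptavidin beads and recovered by RT-PCR. Input and output libraries were sequenced on Illumina, keeping genotypes with ≥10 input reads and ≥1 read per output. Fitness is log base 2 of genotype enrichment divided by wild-type enrichment, from inverse-variance-weighted replicate averages.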

Variant	polymerase ribozyme fitness (log ratio)
A27G G63A C79U	-1.86
A27C G42C G71A G120C U126A U130G	-6.83
C28G C72G	-2.2
A27C G47U G63A C86U	-6.59
A26C A27C U59A C72U C123A	-6.08
A26G G47A C49G G71U	-4.24
A24U G69U	-3.76
A24C G61U	-6.19
C28G G63U	-4.26
C28G G57C G63C C73U A83C C123A	-5.12
A27U G77U U78G A111C	-6.32
C28A U54A G71U G110U	1.85
C28G A118G	-2.17
A27U G44C U96C	-4.49
A27U C115U	-3.71
A26G C62U U133A	-4.26
A27C C53U C72U U125A	-3.83
A26U G47A	-4.24
A26G A43U G69U U112A	-0.179
A27C G120U	-4.08
A27C G120A	-3
A26C G69U	-3.86
A26C G69C	-7.17
C28G G110A G128U	-2.89

Variant	polymerase ribozyme fitness (log ratio)
C28G C98U C124U	-3.04
A27G C73A	-2.84
A26G A27U A74G C115U C124U	-5.7
G25U G39U G44U C73A	-6.92
A26U C101A C114A C123G	-6.37
A24G C40A G117A C124G	-4.17
A24C G39C C114U G120C	-5.54
A27U G44U G69C C89U	-6.05
A24G G128U	-4.32
A24G G128A	-3.49
C28G G60U	-2.56
A27U G61A	-2.77
A26U C72G G120A	-2.51
A26C G61A U96A	-5.9
A27U C62G	-5.76
A27U G52A C88U U96A	-4.5
C28G C123U	-0.975
A24G C72G C94A	-2.87
A24G C124A	0.386
A27U U96C C124G	-1.73
A27U C73A U129C	-3.27
A27C G71A U116C	-4.74
A27U G63U U96G G127C	-6.08
G25A G93A	-6.22

Variant	polymerase ribozyme fitness (log ratio)
A24G A111G G122U	-5
A26U C62A A83U G117A	-6.44
A27U C73U A75G	-3.03
A27U A121C	-0.527
C28G G69U A121C	0.386
A26U C82G C97A C98A U112A	-6.74
C28G G48A C72U	-3.41
A24G G58C A118U	-2.06
G25C G63U C99A C115A	-6.39
A24G G71C	-2.48
C28A C72G	-2.92
A26G U109G	-6.07
A24G C40G G52U	-4.31
C28A G51U G60C C80U G110U G117A	-2.3
A27G U55A	-2.6
A26G G36U C72G	-4.71
A26G G60C	-3.07
A27C C123A	-3.14
A27G C62U C94A U106C	-4.15
A26U G61A	-3.03
C28A A50C C72U G113A	-3.3
A26U C53U G71C A118U	-3.17
A26U A43U A121U	-4.81
A27U U54C U109A G117A A118U U129G	-5.85

Variant	polymerase ribozyme fitness (log ratio)
C28A C56U A121G	-2.77
A26C U54G C70A U109G	-5.98
A24U U30C G58A G63C A95G G120C	-8.06
A27U C40G U132A	-5.01
A26U U54G U78C C89U	-5.2
A26G G60U C97U	-2.92
A27U G127A	-4.51
A24U C49G C64A C104U C123G	-6.64
G23U C123U	-4.37
A26C U92A	-5.95
A27U G44U C56A U133A	-4.31
A24C C56U C114G	-5.71
C28A C70G C79G U130C	-6.51
A26G	-1.67
A26C	-6.07
A26U	-2.98
C28G A41C	-4.58
A27C C86G U133A	-5.16
A26U C72A	-2.97
A27G G61A U81C A84C C104U G110U U131C	-2.62
C28G A66G C123U	-3.76
A27G C89A	-3.54
A27U C73A	-3.09
A26G C53A C56U G93C U96G	-4.22

Variant	polymerase ribozyme fitness (log ratio)
A26G C62A C82U	-3.78
A24U C49A C82G U112A U133C	-4.62
A24G U87A	-1.94
A27G C88U U92A C104A U109C A119G U133A	-7.24
A27G C49U A91C	-4.72
A27U A83U C86U U129C	-3.64
A26U C56A U59C	-4.4
G25A A43G C72U A111U	-6.94
A27U U133A	-3.33
A27U C101A	-4.18
C28A A75G G120U U129G	-6.26
A24G G63U G113U	-6.59
A27C C124G	-0.608
A27U U54A	-2.8
A26G G45A G120C	-1.66
C28A G47A C79U G110C	-2.69
A26G G120A	-0.696
A26U C72U C124U	-1.98
A26U G36C	-4.29
A27U U78C U81A C94U	-4.92
A27G C49A U78C	-2.36
A26U A83U	-2.58
A26U G127C	-3.57
G25C G61A	-4.35

Variant	polymerase ribozyme fitness (log ratio)
G23U C72G	-6.36
A27C C53A C94G	-4.6
A26G U78C	-2.25
A24G G44U G61A A74U U133G	-3.56
A27C U54A G71A C115A U129A	-5.86
A26U C72A U78C A91C A118G A121U U126C	-5.75
A27U C49U	-3.64
A27U C72U C85G A111U U132A	-4.04
A26U U81C	-3.05
C28A	-3.83
C28G	-2.31
A26G G51U	-5.11
A27G G60U A105U	-5.71
A26C A29G U112G	-7.05
A26G G48A C49G A121U	-0.318
G23U G52A C53G C115U	-7.2
C28A A50G C62U G65U G69U U112A	-3.65
A26U G69U	-1.44
A27G U106A	-2.32
A26U C53A U78A G110A	-5.05
A27U A43G	-5.43
A27U A43U	-5.8
A27U C49A C56U C62U U87G G113C	-6.58
A26G C73A	-1.78

Variant	polymerase ribozyme fitness (log ratio)
C28G G71U	-2.39
A26G G63A C124G	-0.0451
C28G C34U G35U A37U A95C C114U U133G	-6.83
A26U U54A G110A	-5.04
G23U A121C	-3.5
A27U G39U C72A	-3.78
C28G G52A C70U C86U C101U G110A U131G	-2.57
A27U G60U	-3.37
A26U G36U C101U	-5.32
A27G G48C G71C G127C	-5.17
A24U C34A U59A G63U C80A G113A	-7.46
A26U C53U C72U U116G	-6.07
A27G G57C G122A U132C	-3.07
A27U C53A C56A U131G	-2.89
A26G C53A U81G	-3.49
A27G U32G C62U U78G G120C	-6.42
A24G C56G C72U C86U U92A U129C	-6.8
A27G A46C A50U	-4.64
A26U A75G A95G	-2.74
A26U G42C	-6.73
A26G C94G	-3.05
C28G G39U C53U G63C C124A	-3.26
A24G C94A	-2.52
